Data taken from a protein production outcome set (Wang et al. 2014).

Assay: label from the status in PepcDB records

Row | Sequence | protein production
1 | TPLSLTLDHWSEIRSRAHNLSVEIKKGPWRTFCASEWPTFDVGWPPEGTFDLTVIFEVKAIVFQDGPGSHPDQQPYITVWQDLVQNSPPWIK | not failed
2 | TQEYLAPKTTVRVGLVQWQMRSYKTLDDLFEQVEFFVDAVSDYKSDFVLFPEYFNAPLMSKYNDKGESQAIRGLAQYTEEIRDRFINLAISYNINIITGSMPLIKEDGLLYNAGFLCRRDGTYEMYEKLHVTPDEIKSWGLSGGKQLKTFDTDCAKIGILICYDVEFPELSRLMADQGMQILFVPFLTDTQNAYSRVRVCAQARAIENECFVVIAGSVGNLPRVHNMDIQYAQSGVFTPCDFAFPTDGKRAEATPNTEMILVSDVDLDLLNELHTYGSVRNLKDRRNDVYEVRFKKP | failed
3 | TSLEEITKAIMADSQNKVFTEKNIEPLFAAPKTARINIVGQAPGIKAQESRLYWNDKSGDRLREWMGVDYDTFYHSGYFAVIPMDFYYPGKGKSGDLPPRKGFAQKWHQPILDLLPDIQLTILIGNYAQKYYLHQKSSVKLTDTVAHYKKYLPDYFPLVHPSPRNQIWMSRHPWFEAQVVPDLKKIIQQIIQSS | not failed
4 | TSSLHPTRGKLLKRFAQIGPYIREQQCQESQFFFDCLAVCVNKKVTPEKREFWGWWMELERNGEQLIYYYQVGLFDKNGDWVNQVISKKDVIESIHETLIRFHDFLQAAVSELEMTLVPDEKMSNFPLPL | not failed
5 | TSSLQGNLLISVPRDFGLLFIAPNLPTFMAKHPHLHIEVEFNDKKIDLLSEGYDLALRIGYMEDSSLVSRKIGTTTVHFAASPNYLETNGIPQTPDDLEHHNGLLYKNAMNQVNWVGSRINQTQRFKIQSKVVSNSGFALL | failed
6 | TSTFYELFPKTFPKKLPIWTIDQSRLRKEYRQLQAQHHPDMAQQGSEQSSTLNQAYHTLKDPLRRSQYMLKLLRNIDLTQEQTSNEVTTSDPQLLLKVLDIHDELSQMDDEAGVKLLEKQNKERIQDIEAQLGQCYNDKDYAAAVKLTVELKYWYNLAKAFKDWAPGKQLEMNH | not failed
7 | TSTMGNLQTAINDKSGTLASQNFLDADEQKRNAYNQAVSAAETILNKQTGPNTAKTAVEQALNNVNNAKHALNGTQNLNNAKQAAITAINGASDLNQKQKDALKAQANGAQRVSNAQDVQHNATELNTA | not failed
8 | TTLQVREQTARRTLAALGYNECVTYSFIDEAAARLFGGGSEAVRVENPISSEMTHLRPDLLPGLLRAAARNQARGFADIALCEIGPVFAGGEPGEQQLQATGLLVGAVAPRDPFGSRRPVDVYDAKADAEAVLAAVGAPARMQISRKVPGWWHPGRSGIVGLGPNVLATFGEVHPRILREMDVKGPAVAFTVLVANVPLPKVKTPTRPALKL | failed
9 | TVVRYNPDNHADESFAARPALLWVHGMTDYFFHTEFAEFFHNAGFAVYGIDLRKCGRSYRPGQQWHYTSDLAHYFPDLTAAAEVISSTHPELVPVAHSTGGLIVPLWMSQMRTSNPAAIEKIPALVLNSPWLDMMYPPLFIKLITPMVRVLGKRSPTTIIPGGGLGAYGKSIHKNFYGEWDFDTTIKPVEGHKKSIGWLRAVMAGQAEIHHDHVNVGVDVLTLCSNKSWLKSEYTEDTNTSDAVLDVKHIQKWAPHLSSPSSRVDVEIIDNARHDIFLSRKPARDHASEVLNNWLQSK | failed
10 | TYHRLALQRENASLNPVGQMVAVNGYKISVFVKGQGSQTLVFLSGAGTASPILDFKDVYDGFSKEYKIVVVERADYGYSEDTSKSRDVSVILSETRQSLAKSQVSGPYIILSHSMASLETLLWQENYPSEVKAVVCLDWAFPESYFQLKRHPQMLRLARWESQLGLLRLLPRQLYMPNENLSDSDRRLYQEIAYRQLLSQAMLNESLCAKENDKKVNSTSIKSQMPVLLMVSNGKGTGFGQEQWRHYATSFAKGQKNMEVTYYDSPHYFYHYQTKEMIRSIEEFVQE | failed
11 | VALAATRAFYWIEAQSPDAATAFAQRVFDLYFSDRLDTASPEAVSRLGPEVGLEPEALLAGIADPALKETVRKIGEDAVARGIFGSPFFLVDDEPFWGWDRMEMMAEWIRTGGW | failed
12 | VDDTVNVANEYSRYPLENYQLDFYVDNSWGWLPWNWSDGIGKQVMYGLYAITNFIWTISLYVSNATGYLVQEAYSLDFISATADSIGKNMQTLAGVTPSGLSTEGFYVGFLLLLILVLGVYVVYTGLIKRETTKAIHAIVNFVMVFILSASFIAYAPDYIKKIN | failed
13 | VDIMLNTADISAAAILLPVEGAQLSELRQIPAEGGPVLHMLRLDSPQFSQFGEIYFSEVLPRRVKAWKRHSLMTQLFAVPVGCIHVVLYDGREKSPTSGRLAQVTLGRPDNYRLLRIPPQVWYGFAATGDTPALVANCTDIPHRQGESERAPQDAPFIPFSWAGADLSGTPVM | not failed
14 | VEASFCLGDNWQFLYVNDATCRMTEYSREQLLSMNLQDIDVDFALHDWEEIRQKNNYTFKTRYRSQSGRIFLVEMSLTFLEDQERRFSCVFVREKS | failed
15 | VELPTEYTEQFSSQPTLNSKPIIKFEFTGNSVDAPVLSMASKKFGIDFSILMSQIDYAGGVKFGFVIAEVEGDGEAITAAKCYLINNNVKVEVLGYVG | failed
16 | VEPQSQALLHAQPIISIRVWGVGRDSGRERDFAYVARDKLTQMLKCHVFRCEAPAKNIATSLHEICSKIMAERRNARCLVNGLSLDHSKLVDVPFQVEFPAPKNELVQKFQVYYLGNVPVAKPVGVDVINGALESVLSSSSREQWTPSHVSVAPATLTILHQQTEAVLGECRVRFLSFLAVGRDVHTFAFIMAAGPASFCCHMFWCEPNAASLSEAVQAACMLRYQKCLDARSQASTSCLPAPPAESVARRVGWTVRRGVQSLWGSLKPKRLGAHTP | failed
17 | VFADKLDITVDQKKIILPYWLSRPVSYGAVIIVSGGETAQWSLLLEQFAKGLARNGWSVVLLNCTKNNSIPWINQLPEVISTLRQNNNKRIVLVHYGDQLNLALEYFSKPQSKMINGLVMLSAYDLNRNLQKVPRLRFPLFDIVGQFDYDMVRQQRKSREEKFKENSYLAIDIPGATHDYQYSQQLLLAFVHGWM | not failed
18 | VFSSEDITETSPDKWLIDGDTPLDEVERAIGYELPEGDYETISGLLFDHANALLKTGDVIEIPLDFEPEDYLNNTSPTQRILRITVLEVERNVPVKLALALLE | not failed
19 | VFVGRCTGDMTEDELREFFSQYGDVMDVFIPKPFRAFAFVTFADDQIAQSLCGEDLIIKGISVHISNAEPKHNSN | not failed
20 | VGQRSDSDHVMAEATTDKRQGHTRGRTGNDRRTQIIKVATELFREKGYYATSLDDIADRIGFTKPAIYYYFKSKEDVLFAIVNSIVDEALERFHAIAAGPGSPGERIHALLVEHTRTILRNLDANTLFYNERGLLSPEREREMRKREREYTEIMQRLYAEGVATGELLDVDPTVATATLLGAAIWTYRWYDPEGRLSADEVVEQITRLLLNGYRRPA | not failed
21 | VGRLDDLKRSPLFQNVPEDAMREALKVVTERNFQPDELVVEQDAEGEALHLVTTGVVRVSRVSLGGRERVLGDIYAPGVVGETAVLAHQERSASVRALTPVRTLMLHREHFELILRRHPRVLWNLAEMLARRVTFLNDELIAFGQNTEAALTHVFANLYRQRLAAGVPQPEVLPLGTQDIMARTSSSRETVSRVLKRLEAHNILEVSPRSVTLLDLAALEALSFEGAETD | not failed
22 | VILKKIFIALIALVVIINTVSFTAVSASTPTWLEQTMNSNEPFIKEIEKETGKTRANITQTDLEAITALRVTGASDIPTNIDMLTHLTTLEVKSGTLSSVSNSVGNLKELKILVLNDNNLSTFPTIVFQLPKLEELQVSGGTIEEIPATITNMASHLKFLGILNNHLVKVPDAIFTTNWTNATGGDLDLMAAGNQIVTNIPANYISQFNNGNNLLEFYDNNYQKQDQLTTTPGYTIDVPVGTDFNQLTPDKTKLALTSGRTLLAQHEFEYYDDGSSSLIHNGVAAAPGQATIFIKSKFSTQSNKFARTQVTVNIIALNGGPITVKHEDTKGQELAPPVILNGKDGDPYTTTQKTFPGYTLVATPANQNGTFTMNPATVNYVYSANDYKLTSTFKDAQGQELKAPVVDTKDYHIQDNYTTTAATIPGYSLVSTPANQNGTFGAGNVTVNYVYKKDDYTLTSTYKDTNGQELKAPVVDATTYHYQDTYTTTAAVFPGYTLVATPTNATGTFGSSNITVNYVYQANGYQLTSTFKDQQGKTIAPDDVDAKTYHVNDPYTTTAKTIPGYTLVTTPANNQGNFGTSDITVDYVYKAEDYTLTSTYKDAQGKELKQPVVDSKKYHIQDNYSTSAAAIPGYTLVATPANETGTFHTSDVTVNYVYKLTDLKLTSTYKDAQGTELKAPVVDSKTYHIQDNYATTAAVIPGYTLVATPANQSGTFGSTDIQVNYVYQAVAYKLTSTYKDQQGNDLALPKVDTKTYHIQDGYTTSDIAIPGYTLVAAPTNQTGTFGASDVTVNYVYKANDYTLTSTYKDAQGKELKTPVIDSQKYHINDTYTTTGATIPGYTLVAAPANQSGTFGAANVTVNYVYKADDYTLTSTYKDANGKELKAPVVDSKTYHTKDNYSTSAATIPGYTLVAVPANQTGTFNTSNVTVNYVYKANEYTLTSTFKNVQGTELKPAIVKKGFIIKDGYATSGVTIPGYTLVATPSNKKGTFGASNVTVNYVYKANGYALITTYKDTQGKDLKPLAIDTKIYNINDPYTATALNIPGYTLTTTPANEKGVFGASDETVNYVYKANDYTLTTTYKDANGKELQAPKVDAKTYHIQDTYKTTAAVIPGYTLVATPKNDQGAFGANNVTVNYVYQTNDYTLTSTFKDAQGNELKAADVDAQKYHIHDTYTSKAAVIPGYTLEKTPTNETGTFNASDIQVNYVYKANDYQLTSTFKDQQGNEIALPTVDAKTYHIHDAYTTKARLIPGYSLVAAPKNQIGAFGTSDVTVNYVYKKDAIIKPITPAKPTILTIKTPASKVIKTKVVKQTLPKTGDDDAGLLNLLRLIGLVLILGVFLAVGSKKLR | failed
23 | VLKQGYMMKKGHRRKNWTERWFVLKPNIISYYVSEDLKDKKGDILLDENCCVESLPDKDGKKCLFLVKCFDKTFEISASDKKKKQEWIQAIHSTIHLLKLGS | not failed
24 | VLMDEGAVLTLAADLSSATLDISKQWSNVFNILRENDFEPKFLCEVKLAFKCDGEIKTFSDLQSLRKFASQKSSMKELLKDVLPQKE | not failed
25 | VLYYKDFKIGLGKNQKENIKLLQDARANDLWMHVRNIPGSHLIVFCQKNAPKDDVIMELAKMLIKMQKDAFNSYEIDYTQRKFVKIIKGANVIYSKYRTISLKDT | failed
26 | VMVFISSSLNSFRSEKRYSRSLTIAEFKCKLELVVGSPASCMELELYGADDKFYSKLDQEDALLGSYPVDDGCSIHVIDHSG | not failed
27 | VNEIVVNPNATLDWQLALRQAAGKTDLARDMLQMLLDFLPEVRNKVEEQLVGENPEGLVDLIHKLHGSCGYSGVPRMKNLCQLIEQQLRSGTKEEDLEPELLELLDEMDNVAREASKILG | not failed
28 | VNELLHLAPNVWPRNTTRDEVGVVCIAGIPLTQLAQEYGTPLFVIDEDDFRSRCRETAAAFGSGANVHYAAKAFLCSEVARWISEEGLCLDVCTGGELAVALHASFPPERITLHGNNKSVSELTAAVKAGVGHIVVDSMTEIERLDAIAGEAGIVQDVLVRLTVGVEAHTHEFISTAHEDQKFGLSVASGAAMAAVRRVFATDHLRLVGLHSHIGSQIFDVDGFELAAHRVIGLLRDVVGEFGPEKTAQIATVDLGGGLGISYLPSDDPPPIAELAAKLGTIVSDESTAVGLPTPKLVVEPGRAIAGPGTITLYEVGTVKDVDVSATAHRRYVSVDGGMSDNIRTALYGAQYDVRLVSRVSDAPPVPARLVGKHCESGDIIVRDTWVPDDIRPGDLVAVAATGAYCYSLSSRYNMVGRPAVVAVHAGNARLVLRRETVDDLLSLEVR | not failed
29 | VNFEVKDQTLMMELVPERLRGETATFDIEADGKVYVEKGRRVTARHIRQLEKDGVNFIEVPVEYIVGKVSAKDYVNEATGELIITANQEISLEALANLSQAG | not failed
